What was measured:
[1] = target: taxol-stabilised microtubules (porcine brain tubulin) (porcine) (UniProt P02550); assay: binding to taxol stabilized microtubules (30 µM tubulin dimers) after p110MARK phosphorylation
[2] = target: microtubules assembled from porcine brain PC-tubulin (not taxol-stabilised) (porcine) (UniProt P02550); assay: cell-based or functional assay
[3] = target: taxol-stabilised microtubules (porcine brain tubulin) (porcine) (UniProt P02550); assay: binding to taxol stabilized microtubules (30 µM tubulin dimers), binding curve

MAP4, phosphorylated with NPK-110, sequence (P27546 630-1125): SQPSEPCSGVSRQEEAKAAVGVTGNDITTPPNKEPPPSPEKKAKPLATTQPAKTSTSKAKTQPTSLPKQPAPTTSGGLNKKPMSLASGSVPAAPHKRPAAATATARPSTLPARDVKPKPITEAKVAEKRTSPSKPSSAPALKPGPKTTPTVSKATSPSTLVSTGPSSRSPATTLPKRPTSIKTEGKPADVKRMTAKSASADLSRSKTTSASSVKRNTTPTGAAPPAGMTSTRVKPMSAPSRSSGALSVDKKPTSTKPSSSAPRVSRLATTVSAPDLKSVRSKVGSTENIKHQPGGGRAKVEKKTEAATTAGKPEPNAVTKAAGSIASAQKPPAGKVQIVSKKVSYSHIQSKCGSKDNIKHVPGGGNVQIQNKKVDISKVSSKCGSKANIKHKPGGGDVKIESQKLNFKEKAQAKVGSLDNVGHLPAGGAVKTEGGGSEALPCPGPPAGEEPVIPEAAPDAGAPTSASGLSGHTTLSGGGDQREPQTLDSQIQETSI

| Substance | Kd [1] [µM] | mean length of microtubules, against the control without ATP (fold of control) [2] | other results |
| --- | --- | --- | --- |
| MAP2cA350, phosphorylated with p110MARK | 7 |  |  |
| MAP2, phosphorylated with NPK-110 |  | 0.5 |  |
| MAP2cA319, phosphorylated with p110MARK | 7 |  |  |
| recombinant wild type MAP2c, phosphorylated with p110MARK (NPK-110) |  | 0.5 |  |
| recombinant wild type MAP2c, non-phosphorylated |  |  | Kd [3]: 0.25 µM; saturation [3]: 17 µM; stoichiometry (MAP2c molecules per tubulin dimer) [3]: 0.5 |
| MAP4, phosphorylated with NPK-110 |  | 0.5 |  |

From patent US7485712
